The data set in a line: yeast display, Sf9 membrane polyspecificity reagent, FACS + sequencing; frameworks hold sequencing errors. Put shortly:
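Polyreactivity labels are assigned by the sorting gate from which each nanobody was recovered. The gates were low and high (top ~1%), set on anti-HA fluorescence for expression and streptavidin fluorescence for reagent binding. Before sorting, galactose-induced (36–48 hours) yeast display cells were stained for 1 hour at 4 °C with 10% biotinylated, detergent-solubilized Sf9 membrane reagent.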
With “QVQLVESGGGLVQAGGSLRLICAASGRTFVANTMGWYRQAPGKERELVATITWNGGSTYYADSVKGRFTISRDNAKNTVYLQMNSLKPEDTAVYYCAKEAYFRRYYVYRYGYWGQGTQVTVSS”, the “polyreactivity (PSR sort gate)” value is “high polyreactivity”.

On to “QVQLVESGGGLVQAGGSLRLICAASGRTFYPNAMGWYRPAPGKERELVAAINSGDSTSYADSVKGRFTIARDNAKNTVYLQMNRLKPEDTAVYYCAAAEWYQFFIYRYTYEYWGQGTQVTVSS”, for which the “polyreactivity (PSR sort gate)” value is recorded as “low polyreactivity”.

For the sequence “QVQLVESGGGLVQAGGSLRLICAASGRTFYVNAMGWYRQAPGKERELVATITDRGGRTYYADSVKGRFTISRDNAKNTVYLQMNSLKPEDTAVYYCAATRWYEVDYWGQGTQVTVSS”, the “polyreactivity (PSR sort gate)” value is “low polyreactivity”.

In the case of “QVQLVESGGGLVQAGGSLRLICAASGRTVYRYAMGWYRQAPGKERELVAAITTSGGSTYYADSVKGRFTISRDNAKKTVNIQMNSLKPEDTAVYYCARRVYGYYIPYNYWGKGTQVTVSS”, the “polyreactivity (PSR sort gate)” value is “high polyreactivity”.

Regarding “QVQLVESGGGLVQAGGSLRLICAASGRTYRLYAMGWYRQAPGKERELVAAISYSDGRTYYADSVKGRFTISRDNAKNTVYLQMNSLKPEDTALYYCAAETLYVSPYFYVVQYDYWGQGTQVTVSS”, the “polyreactivity (PSR sort gate)” value is “high polyreactivity”.

Regarding “QVQLVESGGGLVQAGGSLRLICAASGSIFDQNDMGWYRQAPGKERELVAAISSGSSTNYADSVKGRFTISRDNAKNTVYLQMNSLKAEDTAGYYCAVTSPYSQGYSFWGADSREYWGQGTQVTVSS”, the “polyreactivity (PSR sort gate)” value was “low polyreactivity”.

Consider “QVQLVESGGGLVQAGGSLRLICAASGSIFFGNAMGWYRQAPGKERELDAAITLRGGSTYYADSVKGRFTISRDNAKNTVYLQMNSLKPEDTAVYYCNAVSKRYGYGYWGQGTQVTVSS”, for which the “polyreactivity (PSR sort gate)” value is recorded as “high polyreactivity”.

Regarding “QVQLVESGGGLVQAGGSLRLICAASGSIFGDNAMGWYRQAPGKERELVARISSGGNTYYADSVKGRFTISRDNAKNTVYLQMNSLKPEDTAVYYCNVYRYDGDYWGQGTQVTVSS”, the “polyreactivity (PSR sort gate)” value was “high polyreactivity”.

For the sequence “QVQLVESGGGLVQAGGSLRLICAASGSIFGDTAMAWYSQAPGKERELVATISSSDASTYYADSVKGRFTSSRDNAKNTVYLQMNSVKREDSAVYYCAKEVNAGYHVWYDYWGEGTQVTVSS”, the “polyreactivity (PSR sort gate)” value is given as “low polyreactivity”.

“QVQLVESGGGLVQAGGSLRLICAASGSIFGRYAMGWYRQAPGKETELVAAINDDSGRTYYADSVKGRFTISRDNAKNTVYLQMNSLKPEDTAVYYCAADGYVLWYSFDYWGQGTLVTVSS”: the “polyreactivity (PSR sort gate)” value is reported as “high polyreactivity”.

Turning to “QVQLVESGGGLVQAGGSLRLICAASGSIFGYNAMGWYRQAPGKERELVAAIRISTDNTYYADSVKGRFTISRDNAKNTVYLQMNSLKPEDTAVYYCAASSQTQYGDNYWGQGTQVTVSS”, the “polyreactivity (PSR sort gate)” value is “high polyreactivity”.

As for “QVQLVESGGGLVQAGGSLRLICAASGSIFGYYAMGWYRQAPGKERELVAAISYSGSRTYYADSVKGRFTISRDNAKNTVYLQMNSLKPEDTAVYYCAARGSRLYSSWRGDYWGQGTQVTVSS”, the “polyreactivity (PSR sort gate)” value is given as “high polyreactivity”.

In the case of “QVQLVESGGGLVQAGGSLRLICAASGSIFIRNAMGWYRQAPGKERELVAAITSRGGSTYYADSVKGRFTISRDNAKNTVFLQMNSLKPEDTAVYYCARRYYGLYDYWGQGTQVTVSS”, the “polyreactivity (PSR sort gate)” value is on record as “low polyreactivity”.

“QVQLVESGGGLVQAGGSLRLICAASGSIFISYAMGWYRQAPGKERELVAAISSGGSTNYADSVKGRFTISRDNAKNTVYLQMNSLKPEDTAVYYCAADGWLWSFTGDGWWFDYWGQGTQVTVSS”: the “polyreactivity (PSR sort gate)” value was “low polyreactivity”.

For “QVQLVESGGGLVQAGGSLRLICAASGSIFNGYVMGWYRQAPGKERELVAAISSGGRTYYADSVKGRFTISRDNAKNTVYLQMNSLKPEDTAVYYCAADIWYFDYDYWGQGTQVTVSS”, the “polyreactivity (PSR sort gate)” value is recorded as “high polyreactivity”.

On to “QVQLVESGGGLVQAGGSLRLICAASGSIFPPYAMGWYRQAPGKDREFVAAITISGDSTYYADSVKGRFTISRDNAKNTVYLQMNSLKPEDTAVYYCNADSYAFQYTWGEAYYGLYGYWGQGTQVTVSS”, for which the “polyreactivity (PSR sort gate)” value is recorded as “low polyreactivity”.

Take “QVQLVESGGGLVQAGGSLRLICAASGSIFRFYAMGWYRQAPGTERELVAAISKTGGRTYYADSVKGRFTISRDNAKNTFYLQMNSLKPEDTAVYYCAASIREGFYWGQGTQVTVSS”: the “polyreactivity (PSR sort gate)” value is reported as “high polyreactivity”.

As to “QVQLVESGGGLVQAGGSLRLICAASGSIFRIYAMGWYRQAPGKEREFVAAISRRGGSTYYADSVKGRFTISRDNAKNTVYLQMNSLKPEDTAVYYCAASGGGSDAYWGQGTQVTVSS”, the “polyreactivity (PSR sort gate)” value is on record as “high polyreactivity”.

With “QVQLVESGGGLVQAGGSLRLICAASGSIFSVNTMGWYREAPGKERELVATIRTGDSTNYADSVKGRFTISRDNAKNTVYLQMNSLKPEDTAVYYCAAEWSSLNFDYWGQGTQVTVSS”, the “polyreactivity (PSR sort gate)” value is listed as “low polyreactivity”.

With “QVQLVESGGGLVQAGGSLRLICAASGSIFTVYAMGWYRQAPGKERELVADIDYGGTYYADSVKGRFTISRDNAKNTVYLQMNSLKPEDTAVYYCAALAALDYGQLYLDDDDYWGQGTQVTVSS”, the “polyreactivity (PSR sort gate)” value was “low polyreactivity”.

As for “QVQLVESGGGLVQAGGSLRLICAASGSIFVYNAMGWYRQAPGKERELVAAISYSGGRTYYADSVKGRFTISRDNAKNTVYLQMNSLKPEDTAVYYCAARSQRHKLSREYNYWGQGTQVTVSS”, the “polyreactivity (PSR sort gate)” value is “high polyreactivity”.

On to “QVQLVESGGGLVQAGGSLRLICAASGSIFYYYAMGWYRQAPGKERELVATITWNGAGTFYADSVKGRFTISRDNAKNTVYLQMNSLKPEDTSVYYCAASWYGESGYEYWGQGTQVTVSS”, for which the “polyreactivity (PSR sort gate)” value was “low polyreactivity”.

With “QVQLVESGGGLVQAGGSLRLICAASGSIIAINVMGWYRQAPGKEREFVAAISVRSGSTYYADSVKGRFTISRDNAKNTVYLQMNSLKPEDTAVYYCAARTSRFWRGGGLDYWGQGTQVTVSS”, the “polyreactivity (PSR sort gate)” value is recorded as “high polyreactivity”.

Regarding “QVQLVESGGGLVQAGGSLRLICAASGSISYEYAMGWYRQAPGKERELVASIDSDGAGTYYADSVKGRFTISLDNAKNTVYLQMNSLKPEDTAVYYCNSEWYYPYYYSRMDYWGQGTQVTVSS”, the “polyreactivity (PSR sort gate)” value is listed as “low polyreactivity”.

Consider “QVQLVESGGGLVQAGGSLRLICAASGSIYYSYGMGWYRQAPGKERELVAAITSSGGGTYYADSVKGRFTISRDNAKNTFYLQMNSLKPEDTAVYYCAADDRNYNYYPTFYYWGQGTQVTVSS”, for which the “polyreactivity (PSR sort gate)” value is reported as “low polyreactivity”.

Consider “QVQLVESGGGLVQAGGSLRLICAASGSNFWGNTMGWYRQAPGKERELVATISRRGGSTNYADSVKGRFTISRDNAKNTVYLQMNSLKPEDTAVYYCAAVTIYRSYRGNPYYYWGQGTQVTVSS”, for which the “polyreactivity (PSR sort gate)” value is reported as “high polyreactivity”.

As for “QVQLVESGGGLVQAGGSLRLICAASGSTFAYYVMGWYRPAPGTEREFVATITGSGGRTYYADSVKGRFTISRDNAKNTVYLQMISLKPEDTAVYYCAAGVYTGQHEYDYWGQGTQVTVSS”, the “polyreactivity (PSR sort gate)” value is recorded as “low polyreactivity”.

For “QVQLVESGGGLVQAGGSLRLICAASGSTFERYAMGWYRQAPGKERELVAAIDSRSGSTSYADSVKGRFTISRDNAKNTVYLQMNSLKPEDTAVYYCAKDYYRPWYDRPLGYDYWGQGTQVTVSS”, the “polyreactivity (PSR sort gate)” value is given as “low polyreactivity”.

On to “QVQLVESGGGLVQAGGSLRLICAASGSTFGRYAMGWYRQAPGKERELVARISWGGGSTYYADSVKGRFTISRDNAKNTVYLQMYSLKPEDTAVYYCATRVYRSAVSYDYWGQGTQVTVSS”, for which the “polyreactivity (PSR sort gate)” value is “high polyreactivity”.

For the sequence “QVQLVESGGGLVQAGGSLRLICAASGSTFGTYAMGWYRQAPGKERELVAAISWSGGSTYYADSVKGRFTISRDNAKNTVYLQMNSLQPEDTAVYWGQGTQVTVSS”, the “polyreactivity (PSR sort gate)” value is recorded as “low polyreactivity”.

As to “QVQLVESGGGLVQAGGSLRLICAASGSTFGVNAMGWYRQAPGKERELVAAITQSGGSTFYADSVKGRFTISRDKAKNTVYLQMNSLKPEDTAVYYWGQGTQVTVSS”, the “polyreactivity (PSR sort gate)” value is recorded as “low polyreactivity”.

In the case of “QVQLVESGGGLVQAGGSLRLICAASGSTFIWNSMGWYRQAPGKERELGATITGSGDRTTYADSVKGRFTISRDNAKNTVYLQMNSLKPEDTAVYYCAGDAYRWWVRYDYWGQGTQVTVSS”, the “polyreactivity (PSR sort gate)” value was “low polyreactivity”.

For “QVQLVESGGGLVQAGGSLRLICAASGSTFKTYAMGWYRQAPGQEREFVASISGSGGSTSYADSVKGRFTISRDNAKNTVYLQMNSLKPEDTAVYYCAARLQKPTIGKGVYYWGQGTLVTVSS”, the “polyreactivity (PSR sort gate)” value is “high polyreactivity”.

As to “QVQLVESGGGLVQAGGSLRLICAASGSTFLTNVMGWYRQAPGKERELVAAISRGGGRTYYADSVKGRFTISRDNAKNTVYLQMNSLKPEDTAVYYCNAVDASHAGPVGGAFRYDYWGQGTQVTVSS”, the “polyreactivity (PSR sort gate)” value was “high polyreactivity”.

As to “QVQLVESGGGLVQAGGSLRLICAASGSTFPPNAMGWYRQAPGKERELVAAISKRGGSTTYSDSVKGRFTISRDYAKNTVYLQMNSLIPEDTAVYYCAARRSGRSHYEKMDYWGQGTQVSVSS”, the “polyreactivity (PSR sort gate)” value was “low polyreactivity”.

On to “QVQLVESGGGLVQAGGSLRLICAASGSTFPRNAMGWYRQAPGKERELVATITSSGGGTYYADSVKGRFTISRDNAMNTVYLQMNSLKPEDTAVYYCNADGPAGDAFDYWGQGTQVTVSS”, for which the “polyreactivity (PSR sort gate)” value is on record as “low polyreactivity”.

On to “QVQLVESGGGLVQAGGSLRLICAASGSTFSSNAMAWFRQAPGKERELVAAIDRGGSTNYADSVKGRFTISRDNAKNTVYFQMNCLKAEDTAVYYCKAERVTYDTGRAVLPGGYWGQGTQVTVSS”, for which the “polyreactivity (PSR sort gate)” value was “low polyreactivity”.

Regarding “QVQLVESGGGLVQAGGSLRLICAASGSTFVVNAMGWYRQAPGKERELVAAIRNSGSTTYADSVKGRFTISRDNAKNTVYLQMNSLKPEDTAVYYCATDFSATVTAVQINPYDYWGQGTQVTVSS”, the “polyreactivity (PSR sort gate)” value is on record as “low polyreactivity”.

Consider “QVQLVESGGGLVQAGGSLRLICAASGSTFYDNTMGWYRQAPGKERELVAAISSGGGTYYADSVKGRFTISRDNAKNTVYLQMNSLKPEDTSVYYCNADQTAYGKPGRAYGFDYWGQGTQVTVSS”, for which the “polyreactivity (PSR sort gate)” value is “low polyreactivity”.

As to “QVQLVESGGGLVQAGGSLRLICAASGSTLPGYVKGWYRQAPGKERELVAAITKSGGSTYYADSVKGRFTISRDNAKNTVYLQMNSLKPEDTAVYYCAVGVKAQIAGDYWGQGTQVTVSS”, the “polyreactivity (PSR sort gate)” value is “low polyreactivity”.

In the case of “QVQLVESGGGLVQAGGSLRLICAASGSTQSPYAMGWYRQAPGKERDFVAAISTSGVSTYYADSVKGRFTISRDNAKNTVDLQMNSLKPVDTAVYYCATRYYIYGSTLKLYDYWGQGTQVTVSS”, the “polyreactivity (PSR sort gate)” value is “high polyreactivity”.

The values above are taken from the nanobody polyreactivity screen of Harvey et al. (2022).
